Measurements reported in patent US5650391.

Experiments:
[1] = target: low density lipoprotein receptor-related protein/a2-macroglobulin receptor (LRP) on rat hepatoma MH1 C1 cells (rat)
[2] = target: low density lipoprotein receptor-related protein/a2-macroglobulin receptor (LRP) on rat hepatoma MH1 C1 cells (rat); remark: listed apart in the source
[3] = target: human low density lipoprotein receptor-related protein (LRP) on human hepatoma HepG2 cells (human) (UniProt Q07954)
[4] = target: TFPI binding sites on rat hepatoma MH1 C1 cells (receptor not identified); experiment: binding of ^125 I-TFPI to MH1 C1 cell monolayers at 4° C. (saturation with Scatchard analysis, and competition by unlabelled TFPI)
[5] = target: factor Xa

Row | Substance | degradation of pre-bound ^125 I-TFPI in a single cycle of endocytosis in MH1 C1 cells [1] | inhibition of ^125 I-TFPI degradation (trichloroacetic acid-soluble radioactivity) by MH1 C1 cells, 4 h at 37° C. [2] | degradation of pre-bound ^125 I-TFPI by HepG2 cells (single cycle endocytosis assay) [3] | Kd [4] | functional activity (stoichiometric inhibition of factor Xa) [5]
1 | receptor-associated protein (RAP), 39-kDa protein, full-length (1-319) (ligand) | 80% | 80% | 65% | – | –
2 | recombinant human full-length tissue factor pathway inhibitor (TFPI) (from UniProt P10646) (ligand) | – | – | – | 30 nM | 88%
